Laboratory results from publication PMC4652225.

Tests used:
[1] = target: GST-H1.2 wild type (human) (UniProt P16403); assay: pull-down; GST-H1.2 attached to glutathione beads, FITC-conjugated H3 peptides in solution; increasing KCl from 100 to 400 mM (Fig. S1A)
[2] = target: Flag-tagged K27-mutated (K27R) H3 (in mononucleosomes) (human) (UniProt P68431); assay: co-IP; MCF7 cells transfected with Flag-H3 WT or K27R; mononucleosomes by MNase digestion, immunoprecipitated with Flag antibody; Western blot with H1.2 antibody (Fig. 2A)

fold weaker interaction than the H3K27me3 peptide at elevated KCl [1] [fold]	fold reduction of the interaction against wild type H3 nucleosomes [2] [fold]	Substance
3		FITC-conjugated H3K27me0 peptide
3		FITC-conjugated H3K27me1 peptide
3		FITC-conjugated H3K27me2 peptide
	2.5	linker histone H1.2 (endogenous) (from UniProt P16403 1-213) (natural protein)
